According to patent US20160009788A1 (UNITED STATES OF AMERICA AS REPRESENTED BY THE SECRETARY …, published 2016):
Residue numbers refer to the chain shown, from its start.

Columns and labels:
[1] = target: T1, Norwalk virus (NV, GI.1) recombinant virus-like particles (capsid protein VP1) (Norwalk virus, UniProt Q83884 1-530); test: SPR (Biacore 1000), NV rVLP amine-coupled to CM5 chip, Fab as analyte 1-10 nM, Langmuir model
T1 construct: also called NV rVLP; NV-VLP
T1 sequence: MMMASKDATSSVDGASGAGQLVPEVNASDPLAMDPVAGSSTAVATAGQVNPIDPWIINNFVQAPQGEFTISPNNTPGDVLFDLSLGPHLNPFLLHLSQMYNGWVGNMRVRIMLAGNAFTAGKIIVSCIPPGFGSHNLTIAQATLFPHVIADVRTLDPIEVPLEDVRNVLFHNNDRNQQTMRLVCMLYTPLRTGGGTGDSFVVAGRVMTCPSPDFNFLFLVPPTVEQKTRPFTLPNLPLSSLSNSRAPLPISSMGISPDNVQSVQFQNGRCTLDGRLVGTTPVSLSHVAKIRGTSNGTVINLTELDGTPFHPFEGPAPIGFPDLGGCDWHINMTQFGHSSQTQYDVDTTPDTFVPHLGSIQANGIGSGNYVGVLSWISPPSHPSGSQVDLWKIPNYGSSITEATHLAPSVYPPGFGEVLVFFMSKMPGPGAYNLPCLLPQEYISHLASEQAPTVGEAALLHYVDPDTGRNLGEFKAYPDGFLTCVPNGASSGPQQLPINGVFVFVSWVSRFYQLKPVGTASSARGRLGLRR

bovine serum albumin = target: T2, bovine serum albumin (bovine, UniProt P02769 25-607); test: ELISA, antigen on the solid phase, soluble Fab
T2 construct: Control antigen; also called BSA

[2] = target: T3, NV VP1 G365N/V370I/I376V triple mutant (Norwalk virus, UniProt Q83884 1-530); test: immunofluorescence on transfected Vero cells
T3 construct: whole, on cells; Expressed in transfected Vero cells, methanol-fixed, immunofluorescence
T3 sequence (looked up): T1 sequence with G365N, V370I, I376V

NV VP1 G365N mutant = target: T4, NV VP1 G365N mutant (Norwalk virus, UniProt Q83884 1-530); test: immunofluorescence on transfected Vero cells
T4 construct: whole, on cells; Expressed in transfected Vero cells, methanol-fixed, immunofluorescence
T4 sequence (looked up): T1 sequence with G365N

[3] = target: T5, NV VP1 G365N/V370I double mutant (Norwalk virus, UniProt Q83884 1-530); test: immunofluorescence on transfected Vero cells
T5 construct: whole, on cells; Expressed in transfected Vero cells, methanol-fixed, immunofluorescence
T5 sequence (looked up): T1 sequence with G365N, V370I

[4] = target: T6, NV VP1 G365N/I376V double mutant (Norwalk virus, UniProt Q83884 1-530); test: immunofluorescence on transfected Vero cells
T6 construct: whole, on cells; Expressed in transfected Vero cells, methanol-fixed, immunofluorescence
T6 sequence (looked up): T1 sequence with G365N, I376V

T2 sequence (P02769 25-607 limits assumed): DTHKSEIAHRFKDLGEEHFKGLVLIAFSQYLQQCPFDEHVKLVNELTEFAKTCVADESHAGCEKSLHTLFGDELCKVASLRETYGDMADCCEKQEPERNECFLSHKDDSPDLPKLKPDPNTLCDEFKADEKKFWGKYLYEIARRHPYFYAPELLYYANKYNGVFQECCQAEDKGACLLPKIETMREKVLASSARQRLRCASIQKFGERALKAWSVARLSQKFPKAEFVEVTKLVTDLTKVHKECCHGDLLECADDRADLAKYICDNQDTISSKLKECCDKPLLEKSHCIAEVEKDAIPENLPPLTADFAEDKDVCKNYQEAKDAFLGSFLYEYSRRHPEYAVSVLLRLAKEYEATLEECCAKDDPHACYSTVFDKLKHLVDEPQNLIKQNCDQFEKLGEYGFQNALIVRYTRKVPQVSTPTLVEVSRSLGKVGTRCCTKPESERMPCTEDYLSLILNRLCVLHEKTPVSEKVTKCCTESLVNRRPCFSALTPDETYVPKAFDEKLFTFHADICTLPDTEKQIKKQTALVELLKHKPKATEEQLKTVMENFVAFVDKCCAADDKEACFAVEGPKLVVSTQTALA

B1: anti-NV Fab G4 (Fab, V domains shown)
VH: EVQLEESGGGLVKPGGSLRLSCAASGFTFSHYVMYWVRQAPEKGLEWVSTISGSGSSTWYPDSVKGRFTVSRDNSKNTLYLQMNSLRGDDTAVYYCARLQGQLVYWGLGTLVTVS
VL: ELQMTQSPSTLSASVGDRVTITCRASQGISSWLAWYQQKPGRAPKLLIYKSSTLESGVPSRFSGSGSGTEFTLTISSLQPDDFATYFCQQYSSNPPLTFGGGTKVEIKR
notes: also called Norwalk Fab G4
Kd [1]: 0.974 nM | koff [1]: 0.00142 s⁻¹ | kon [1]: 1.46e+06 M⁻¹ s⁻¹ | binding result (bovine serum albumin): no binding | binding result [2]: no binding (tested: 5 ug/mL) | binding result (NV VP1 G365N mutant): no binding (tested: 5 ug/mL) | binding result [3]: no binding (tested: 5 ug/mL) | binding result [4]: no binding (tested: 5 ug/mL)
